Source: patent US10005829B2, “Synthetic linear apelin mimetics for the treatment of heart failure” (priority 2012, dated 2018)
*1 amine or outer side, *2 acyl side, *3 side chain or, on linkers, in order; H or OH if unused. [ ]: non-standard residue; d: D form. Tyr(Bzl) = L-benzyl-tyrosine, O=C([C@H](Cc1ccc(OCc2ccccc2)cc1)N[*:1])[*:2]; Phe(3,4-Cl2) = N[C@@H](Cc1ccc(Cl)c(Cl)c1)C(=O)O; 2Nal = N[C@@H](Cc1ccc2ccccc2c1)C(=O)O; Cha = N[C@@H](CC1CCCCC1)C(=O)O; pGlu = O=C1CC[C@@H](C(=O)O)N1; dNle = CCCC[C@@H](N)C(=O)O; Nle = CCCC[C@H](N)C(=O)O; Aib = CC(C)(N)C(=O)O

T1: APJ receptor (human, UniProt P35414 1-380)
T1 sequence (looked up): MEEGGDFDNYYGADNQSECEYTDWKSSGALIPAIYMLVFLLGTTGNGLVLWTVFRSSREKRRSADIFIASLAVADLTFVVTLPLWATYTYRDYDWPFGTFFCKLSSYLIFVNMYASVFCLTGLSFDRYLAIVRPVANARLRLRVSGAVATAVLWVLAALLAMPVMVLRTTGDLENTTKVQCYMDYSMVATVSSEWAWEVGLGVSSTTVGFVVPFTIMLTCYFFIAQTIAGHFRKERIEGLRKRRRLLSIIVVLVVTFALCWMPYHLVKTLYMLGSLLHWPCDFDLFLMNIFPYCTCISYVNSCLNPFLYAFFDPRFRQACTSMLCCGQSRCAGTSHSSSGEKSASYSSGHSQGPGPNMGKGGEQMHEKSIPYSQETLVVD

B1: pE-R-P-R-L-S-Aib-K-G-P-Nle-a-F-OH (peptide)
peptide: [pGlu]RPRLS[Aib]KGP[Nle][dA]F-OH
SMILES: CCCC[C@H](NC(=O)[C@@H]1CCCN1C(=O)CNC(=O)[C@H](CCCCN)NC(=O)C(C)(C)NC(=O)[C@H](CO)NC(=O)[C@H](CC(C)C)NC(=O)[C@H](CCCNC(=N)N)NC(=O)[C@@H]1CCCN1C(=O)[C@H](CCCNC(=N)N)NC(=O)[C@@H]1CCC(=O)N1)C(=O)N[C@H](C)C(=O)N[C@@H](Cc1ccccc1)C(=O)O
B2: pE-R-P-R-L-S-Aib-k-G-P-nle-a-f-OH (peptide)
peptide: [pGlu]RPRLS[Aib][dK]GP[dNle][dA][dF]-OH
SMILES: CCCC[C@@H](NC(=O)[C@@H]1CCCN1C(=O)CNC(=O)[C@@H](CCCCN)NC(=O)C(C)(C)NC(=O)[C@H](CO)NC(=O)[C@H](CC(C)C)NC(=O)[C@H](CCCNC(=N)N)NC(=O)[C@@H]1CCCN1C(=O)[C@H](CCCNC(=N)N)NC(=O)[C@@H]1CCC(=O)N1)C(=O)N[C@H](C)C(=O)N[C@H](Cc1ccccc1)C(=O)O
B3: pE-R-P-R-Cha-a-H-K-G-P-nle-a-f-OH (peptide)
peptide: [pGlu]RPR[Cha][dA]HKGP[dNle][dA][dF]-OH
SMILES: CCCC[C@@H](NC(=O)[C@@H]1CCCN1C(=O)CNC(=O)[C@H](CCCCN)NC(=O)[C@H](Cc1c[nH]cn1)NC(=O)[C@@H](C)NC(=O)[C@H](CC1CCCCC1)NC(=O)[C@H](CCCNC(=N)N)NC(=O)[C@@H]1CCCN1C(=O)[C@H](CCCNC(=N)N)NC(=O)[C@@H]1CCC(=O)N1)C(=O)N[C@H](C)C(=O)N[C@H](Cc1ccccc1)C(=O)O
B4: pE-R-P-R-L-S-Aib-K-G-P-nle-a-f-OH (peptide)
peptide: [pGlu]RPRLS[Aib]KGP[dNle][dA][dF]-OH
SMILES: CCCC[C@@H](NC(=O)[C@@H]1CCCN1C(=O)CNC(=O)[C@H](CCCCN)NC(=O)C(C)(C)NC(=O)[C@H](CO)NC(=O)[C@H](CC(C)C)NC(=O)[C@H](CCCNC(=N)N)NC(=O)[C@@H]1CCCN1C(=O)[C@H](CCCNC(=N)N)NC(=O)[C@@H]1CCC(=O)N1)C(=O)N[C@H](C)C(=O)N[C@H](Cc1ccccc1)C(=O)O
B5: pE-R-a-R-L-a-H-K-G-P-nle-a-f-OH (peptide)
peptide: [pGlu]R[dA]RL[dA]HKGP[dNle][dA][dF]-OH
SMILES: CCCC[C@@H](NC(=O)[C@@H]1CCCN1C(=O)CNC(=O)[C@H](CCCCN)NC(=O)[C@H](Cc1c[nH]cn1)NC(=O)[C@@H](C)NC(=O)[C@H](CC(C)C)NC(=O)[C@H](CCCNC(=N)N)NC(=O)[C@@H](C)NC(=O)[C@H](CCCNC(=N)N)NC(=O)[C@@H]1CCC(=O)N1)C(=O)N[C@H](C)C(=O)N[C@H](Cc1ccccc1)C(=O)O
B6: pE-R-P-R-(3,4-Cl2-F)-a-H-K-G-P-nle-a-f-OH (peptide)
peptide: [pGlu]RPR[Phe(3,4-Cl2)][dA]HKGP[dNle][dA][dF]-OH
SMILES: CCCC[C@@H](NC(=O)[C@@H]1CCCN1C(=O)CNC(=O)[C@H](CCCCN)NC(=O)[C@H](Cc1c[nH]cn1)NC(=O)[C@@H](C)NC(=O)[C@H](Cc1ccc(Cl)c(Cl)c1)NC(=O)[C@H](CCCNC(=N)N)NC(=O)[C@@H]1CCCN1C(=O)[C@H](CCCNC(=N)N)NC(=O)[C@@H]1CCC(=O)N1)C(=O)N[C@H](C)C(=O)N[C@H](Cc1ccccc1)C(=O)O
B7: pE-R-P-R-L-a-a-K-G-P-nle-a-f-OH (peptide)
peptide: [pGlu]RPRL[dA][dA]KGP[dNle][dA][dF]-OH
SMILES: CCCC[C@@H](NC(=O)[C@@H]1CCCN1C(=O)CNC(=O)[C@H](CCCCN)NC(=O)[C@@H](C)NC(=O)[C@@H](C)NC(=O)[C@H](CC(C)C)NC(=O)[C@H](CCCNC(=N)N)NC(=O)[C@@H]1CCCN1C(=O)[C@H](CCCNC(=N)N)NC(=O)[C@@H]1CCC(=O)N1)C(=O)N[C@H](C)C(=O)N[C@H](Cc1ccccc1)C(=O)O
B8: pE-R-P-R-L-S-Aib-K-G-P-nle-a-F-OH (peptide)
peptide: [pGlu]RPRLS[Aib]KGP[dNle][dA]F-OH
SMILES: CCCC[C@@H](NC(=O)[C@@H]1CCCN1C(=O)CNC(=O)[C@H](CCCCN)NC(=O)C(C)(C)NC(=O)[C@H](CO)NC(=O)[C@H](CC(C)C)NC(=O)[C@H](CCCNC(=N)N)NC(=O)[C@@H]1CCCN1C(=O)[C@H](CCCNC(=N)N)NC(=O)[C@@H]1CCC(=O)N1)C(=O)N[C@H](C)C(=O)N[C@@H](Cc1ccccc1)C(=O)O
B9: pE-R-P-R-(2-Nal)-a-H-K-G-P-nle-a-f-OH (peptide)
peptide: [pGlu]RPR[2Nal][dA]HKGP[dNle][dA][dF]-OH
SMILES: CCCC[C@@H](NC(=O)[C@@H]1CCCN1C(=O)CNC(=O)[C@H](CCCCN)NC(=O)[C@H](Cc1c[nH]cn1)NC(=O)[C@@H](C)NC(=O)[C@H](Cc1ccc2ccccc2c1)NC(=O)[C@H](CCCNC(=N)N)NC(=O)[C@@H]1CCCN1C(=O)[C@H](CCCNC(=N)N)NC(=O)[C@@H]1CCC(=O)N1)C(=O)N[C@H](C)C(=O)N[C@H](Cc1ccccc1)C(=O)O
B10: pE-R-P-R-L-a-f-K-G-P-nle-a-f-OH (peptide)
peptide: [pGlu]RPRL[dA][dF]KGP[dNle][dA][dF]-OH
SMILES: CCCC[C@@H](NC(=O)[C@@H]1CCCN1C(=O)CNC(=O)[C@H](CCCCN)NC(=O)[C@@H](Cc1ccccc1)NC(=O)[C@@H](C)NC(=O)[C@H](CC(C)C)NC(=O)[C@H](CCCNC(=N)N)NC(=O)[C@@H]1CCCN1C(=O)[C@H](CCCNC(=N)N)NC(=O)[C@@H]1CCC(=O)N1)C(=O)N[C@H](C)C(=O)N[C@H](Cc1ccccc1)C(=O)O
B11: pE-R-P-R-L-a-L-K-G-P-nle-a-f-OH (peptide)
peptide: [pGlu]RPRL[dA]LKGP[dNle][dA][dF]-OH
SMILES: CCCC[C@@H](NC(=O)[C@@H]1CCCN1C(=O)CNC(=O)[C@H](CCCCN)NC(=O)[C@H](CC(C)C)NC(=O)[C@@H](C)NC(=O)[C@H](CC(C)C)NC(=O)[C@H](CCCNC(=N)N)NC(=O)[C@@H]1CCCN1C(=O)[C@H](CCCNC(=N)N)NC(=O)[C@@H]1CCC(=O)N1)C(=O)N[C@H](C)C(=O)N[C@H](Cc1ccccc1)C(=O)O
B12: pE-R-P-R-Y-a-H-K-G-P-nle-a-f-OH (peptide)
peptide: [pGlu]RPRY[dA]HKGP[dNle][dA][dF]-OH
SMILES: CCCC[C@@H](NC(=O)[C@@H]1CCCN1C(=O)CNC(=O)[C@H](CCCCN)NC(=O)[C@H](Cc1c[nH]cn1)NC(=O)[C@@H](C)NC(=O)[C@H](Cc1ccc(O)cc1)NC(=O)[C@H](CCCNC(=N)N)NC(=O)[C@@H]1CCCN1C(=O)[C@H](CCCNC(=N)N)NC(=O)[C@@H]1CCC(=O)N1)C(=O)N[C@H](C)C(=O)N[C@H](Cc1ccccc1)C(=O)O
B13: pE-R-P-R-(D-Leu)-S-Aib-K-G-P-nle-a-f-OH (peptide)
peptide: [pGlu]RPR[dL]S[Aib]KGP[dNle][dA][dF]-OH
SMILES: CCCC[C@@H](NC(=O)[C@@H]1CCCN1C(=O)CNC(=O)[C@H](CCCCN)NC(=O)C(C)(C)NC(=O)[C@H](CO)NC(=O)[C@@H](CC(C)C)NC(=O)[C@H](CCCNC(=N)N)NC(=O)[C@@H]1CCCN1C(=O)[C@H](CCCNC(=N)N)NC(=O)[C@@H]1CCC(=O)N1)C(=O)N[C@H](C)C(=O)N[C@H](Cc1ccccc1)C(=O)O
B14: pE-R-P-R-L-S-Aib-K-G-P-Nle-a-f-OH (peptide)
peptide: [pGlu]RPRLS[Aib]KGP[Nle][dA][dF]-OH
SMILES: CCCC[C@H](NC(=O)[C@@H]1CCCN1C(=O)CNC(=O)[C@H](CCCCN)NC(=O)C(C)(C)NC(=O)[C@H](CO)NC(=O)[C@H](CC(C)C)NC(=O)[C@H](CCCNC(=N)N)NC(=O)[C@@H]1CCCN1C(=O)[C@H](CCCNC(=N)N)NC(=O)[C@@H]1CCC(=O)N1)C(=O)N[C@H](C)C(=O)N[C@H](Cc1ccccc1)C(=O)O

target: T1, APJ receptor; assay: cell-based or functional assay

hAPJ Ca^2+ Flux EC50 | Binder
2.4 nM | B1
2.4 nM | ERPRLAHKGPLXF (pE at 1; D-Ala at 6; D-Nle at 11; D-Abu at 12; D-Phe at 13) [pE-R-P-R-L-a-H-K-G-P-nle-abu-f-OH]
121 nM | [pGlu]RPR[Tyr(Bzl)][dA]HKGP[dNle][dA][dF]-OH [pE-R-P-R-Y(Bzl)-a-H-K-G-P-nle-a-f-OH]
79.9 nM | B2
2.8 nM | B3
2 nM | B4
16.2 nM | ERPRLAHKGPLA (pE at 1; D-Ala at 6; D-Nle at 11; D-Ala at 12; C-terminal NH(Phenethyl) amide) [pE-R-P-R-L-a-H-K-G-P-nle-a-NH(Phenethyl)]
2.4 nM | [pGlu]RPRL[dA]HKGP[Nle][dA][dF]-OH [pE-R-P-R-L-a-H-K-G-P-Nle-a-f-OH]
623 nM | B5
14.8 nM | [pGlu]RPRL[dA]HKGP[dNle][dA][dF]-NH2 [pE-R-P-R-L-a-H-K-G-P-nle-a-f-NH2]
34.5 nM | ERPRLAHKGPLPF (pE at 1; D-Ala at 6; Nle (L-norleucine) at 11; D-Phe at 13) [pE-R-P-R-L-a-H-K-G-P-Nle-P-f-OH]
13.8 nM | B6
16.1 nM | B7
1.7 nM | ERPRLAHKGPLAX (pE at 1; D-Ala at 6; D-Nle at 11; D-Ala at 12; D-Tic at 13) [pE-R-P-R-L-a-H-K-G-P-nle-a-tic-OH]
3 nM | ERPRLXHKGPLAF (pE at 1; D-Abu at 6; D-Nle at 11; D-Ala at 12; D-Phe at 13) [pE-R-P-R-L-abu-H-K-G-P-nle-a-f-OH]
10.7 nM | ERPRLAHKGPLF (pE at 1; D-Ala at 6; Nle (L-norleucine) at 11; D-Phe at 12) [pE-R-P-R-L-a-H-K-G-P-Nle-f-OH]
3.9 nM | B8
69.2 nM | B9
9.2 nM | B10
4.4 nM | B11
796 nM | [pGlu][dR]PRL[dA]HKGP[dNle][dA][dF]-OH [pE-r-P-R-L-a-H-K-G-P-nle-a-f-OH]
4.5 nM | ERPRLSXKGPLPF (pE at 1; Aib at 7; Nle (L-norleucine) at 11; D-Phe at 13) [pE-R-P-R-L-S-Aib-K-G-P-Nle-P-f-OH]
99 nM | [pGlu]RPRL[dA]H[dK]GP[Nle][dA][dF]-OH [pE-R-P-R-L-a-H-k-G-P-Nle-a-f-OH]
114 nM | B12
4.5 nM | [pGlu]RPRL[dA]HKGP[Nle][dA]F-OH [pE-R-P-R-L-a-H-K-G-P-Nle-a-F-OH]
5 nM | B13
3.3 nM | B14
